Measurements from publication PMC3888430, “Sorcin Links Calcium Signaling to Vesicle Trafficking, Regulates Polo-Like Kinase 1 and Is Necessary for Mitosis” (PLoS ONE, 2014).

Assays:
Test in all cases: peptide or protein array; ProtoArray human protein microarray (proteins arrayed in duplicate on nitrocellulose coated glass slide, native conditions) probed with 1 µM AlexaFluor 532-A2C sorcin in the presence of either 1 mM EDTA or 1 mM CaCl2
Details in all cases: both partners purified
[1] = biological target: T1, CSNK2A1, human, on ProtoArray (human, UniProt P68400 1-391)
T1 construct: CSNK2A1 (casein kinase II subunit alpha), human, full length protein of the ProtoArray; source: bought: ProtoArray human protein microarray (Life technologies), individually purified and arrayed

[2] = biological target: T2, Annexin 11, human, on ProtoArray (human, UniProt P50995 1-505)
T2 construct: Annexin 11, human, full length protein of the ProtoArray; source: bought: ProtoArray human protein microarray (Life technologies), individually purified and arrayed

[3] = biological target: T3, Aurora B kinase, human, on ProtoArray (human, UniProt Q96GD4 1-344)
T3 construct: Aurora B kinase, human, full length protein of the ProtoArray; source: bought: ProtoArray human protein microarray (Life technologies), individually purified and arrayed

[4] = biological target: T4, CSNK2A2, human, on ProtoArray (human, UniProt P19784 1-350)
T4 construct: CSNK2A2 (casein kinase II subunit alpha'), human, full length protein of the ProtoArray; source: bought: ProtoArray human protein microarray (Life technologies), individually purified and arrayed

[5] = biological target: T5, Polo-like kinase 1 (PLK1), human, on ProtoArray (human, UniProt P53350 1-603)
T5 construct: Polo-like kinase 1, human, full length protein of the ProtoArray; In the functional row this id stands for purified recombinant PLK1 bought from Cell Signaling Technology (#7728); source: bought: ProtoArray human protein microarray (Life technologies), individually purified and arrayed

[6] = biological target: T6, Aurora A kinase, human, on ProtoArray (human, UniProt O14965 1-403)
T6 construct: Aurora A kinase, human, full length protein of the ProtoArray; source: bought: ProtoArray human protein microarray (Life technologies), individually purified and arrayed
T6 sequence (looked up): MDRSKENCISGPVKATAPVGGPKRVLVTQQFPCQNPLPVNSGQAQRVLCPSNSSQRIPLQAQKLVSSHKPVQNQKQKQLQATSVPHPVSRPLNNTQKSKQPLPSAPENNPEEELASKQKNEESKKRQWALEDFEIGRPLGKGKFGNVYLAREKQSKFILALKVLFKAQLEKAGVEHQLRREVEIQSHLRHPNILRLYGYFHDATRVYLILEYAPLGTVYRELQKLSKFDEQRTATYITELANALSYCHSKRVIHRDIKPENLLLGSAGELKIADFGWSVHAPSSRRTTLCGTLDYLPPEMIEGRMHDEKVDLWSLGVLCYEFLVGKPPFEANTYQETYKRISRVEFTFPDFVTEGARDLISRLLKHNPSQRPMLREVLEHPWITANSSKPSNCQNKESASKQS

T1 sequence (P68400 whole entry): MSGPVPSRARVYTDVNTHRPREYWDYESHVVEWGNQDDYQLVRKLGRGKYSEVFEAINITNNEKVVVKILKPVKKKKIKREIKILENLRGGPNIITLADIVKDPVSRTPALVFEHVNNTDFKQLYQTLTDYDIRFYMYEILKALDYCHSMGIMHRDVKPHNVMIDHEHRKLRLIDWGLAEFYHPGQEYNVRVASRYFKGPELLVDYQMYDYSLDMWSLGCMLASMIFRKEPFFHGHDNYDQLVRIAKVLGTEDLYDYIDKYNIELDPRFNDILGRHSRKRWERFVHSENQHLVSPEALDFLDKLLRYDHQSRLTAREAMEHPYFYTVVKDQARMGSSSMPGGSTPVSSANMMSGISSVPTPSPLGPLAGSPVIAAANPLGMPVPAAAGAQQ
T5 sequence (P53350 whole entry): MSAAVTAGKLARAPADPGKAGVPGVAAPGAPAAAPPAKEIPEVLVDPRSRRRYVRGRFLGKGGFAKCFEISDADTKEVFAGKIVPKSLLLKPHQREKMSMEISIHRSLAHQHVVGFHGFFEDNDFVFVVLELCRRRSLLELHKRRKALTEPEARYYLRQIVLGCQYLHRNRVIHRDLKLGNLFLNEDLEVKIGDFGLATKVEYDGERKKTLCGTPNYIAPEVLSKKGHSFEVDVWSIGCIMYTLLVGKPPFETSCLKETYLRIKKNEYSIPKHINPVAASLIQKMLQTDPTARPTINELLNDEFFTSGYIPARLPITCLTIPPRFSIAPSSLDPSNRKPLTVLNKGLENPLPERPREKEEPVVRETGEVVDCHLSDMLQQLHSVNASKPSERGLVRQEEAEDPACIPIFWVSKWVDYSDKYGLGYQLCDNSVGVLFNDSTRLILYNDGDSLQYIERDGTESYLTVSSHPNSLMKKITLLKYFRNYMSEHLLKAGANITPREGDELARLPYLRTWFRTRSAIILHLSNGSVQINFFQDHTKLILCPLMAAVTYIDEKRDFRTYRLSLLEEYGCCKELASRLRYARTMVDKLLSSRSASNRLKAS
T3 sequence (Q96GD4 whole entry): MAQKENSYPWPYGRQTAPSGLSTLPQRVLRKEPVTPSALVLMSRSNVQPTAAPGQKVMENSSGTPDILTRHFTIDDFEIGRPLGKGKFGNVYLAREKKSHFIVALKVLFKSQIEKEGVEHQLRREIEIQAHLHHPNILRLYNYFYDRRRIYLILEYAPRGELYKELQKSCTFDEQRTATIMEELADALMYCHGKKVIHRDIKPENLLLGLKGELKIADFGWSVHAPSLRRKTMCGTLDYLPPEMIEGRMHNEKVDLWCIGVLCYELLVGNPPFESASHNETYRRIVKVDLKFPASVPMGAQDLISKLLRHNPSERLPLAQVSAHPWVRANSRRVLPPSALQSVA
T2 sequence (P50995 whole entry): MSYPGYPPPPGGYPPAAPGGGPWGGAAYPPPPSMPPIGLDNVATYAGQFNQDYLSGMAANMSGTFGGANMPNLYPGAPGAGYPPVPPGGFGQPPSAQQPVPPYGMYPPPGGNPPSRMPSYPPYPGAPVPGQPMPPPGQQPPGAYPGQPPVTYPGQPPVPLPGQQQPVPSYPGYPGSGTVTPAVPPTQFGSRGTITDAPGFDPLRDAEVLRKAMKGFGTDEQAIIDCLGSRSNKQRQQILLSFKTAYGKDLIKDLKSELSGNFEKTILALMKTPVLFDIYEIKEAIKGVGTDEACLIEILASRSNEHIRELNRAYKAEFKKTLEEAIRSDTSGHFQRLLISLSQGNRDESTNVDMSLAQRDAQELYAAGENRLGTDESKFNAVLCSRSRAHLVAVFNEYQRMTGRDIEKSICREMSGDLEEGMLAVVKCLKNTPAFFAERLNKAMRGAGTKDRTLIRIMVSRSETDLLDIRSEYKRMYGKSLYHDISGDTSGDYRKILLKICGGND
T4 sequence (P19784 whole entry): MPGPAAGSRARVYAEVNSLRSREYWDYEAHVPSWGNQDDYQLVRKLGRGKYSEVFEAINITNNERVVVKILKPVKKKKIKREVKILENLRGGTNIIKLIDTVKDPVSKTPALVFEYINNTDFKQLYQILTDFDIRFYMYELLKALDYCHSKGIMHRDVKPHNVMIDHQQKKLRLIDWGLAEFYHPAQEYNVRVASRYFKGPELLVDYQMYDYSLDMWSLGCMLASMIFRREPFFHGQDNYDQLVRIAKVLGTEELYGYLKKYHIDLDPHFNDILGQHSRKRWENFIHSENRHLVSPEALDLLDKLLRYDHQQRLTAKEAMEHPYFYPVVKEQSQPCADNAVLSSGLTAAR

binding result [1]: binds
binding result [2]: binds
binding result [3]: binds
binding result [4]: binds
fold increase of the interaction with 1 mM calcium against EDTA [5]: 1.5 fold
binding result [6]: binds
B1: AlexaFluor 532-A2C sorcin (natural protein, human)
chain: MCYPGHPGAGGGYYPGGYGGAPGGPAFPGQTQDPLYGYFAAVAGQDGQIDADELQRCLTQSGIAGGYKPFNLETCRLMVSMLDRDMSGTMGFNEFKELWAVLNGWRQHFISFDTDRSGTVDPQELQKALTTMGFRLSPQAVNSIAKRYSTNGKITFDDYIACCVKLRALTDSFRRRDTAQQGVVNFPYDDFIQCVMSV
modifications: AlexaFluor 532 C5-maleimide on thiol groups (A2C mutant made for the conjugation)
notes: In the functional row this id stands for unlabelled human wt sorcin (HS) from the same expression system; also called A2C-sorcin-AlexaFluor 532 maleimide; source: E. coli BL21(DE3), purified according to Meyers et al; labelled with AlexaFluor 532 C5-maleimide
